# From patent US9725708B2, “Methods of modulating ubiquitin ligase activity” (Board of Supervisors of Louisiana State University and …, priority 2012, dated 2017)
# Numbering of substitutions follows the chain as printed. “Also recorded” adds a separate entry of the source.
# T1: E6APY533A (Homo sapiens, UniProt Q05086, Y556A)
# T1 construct: made in house; host or cells: E. coli
# T1 sequence (Q05086 1-872 isoform Q05086-3 Y553A): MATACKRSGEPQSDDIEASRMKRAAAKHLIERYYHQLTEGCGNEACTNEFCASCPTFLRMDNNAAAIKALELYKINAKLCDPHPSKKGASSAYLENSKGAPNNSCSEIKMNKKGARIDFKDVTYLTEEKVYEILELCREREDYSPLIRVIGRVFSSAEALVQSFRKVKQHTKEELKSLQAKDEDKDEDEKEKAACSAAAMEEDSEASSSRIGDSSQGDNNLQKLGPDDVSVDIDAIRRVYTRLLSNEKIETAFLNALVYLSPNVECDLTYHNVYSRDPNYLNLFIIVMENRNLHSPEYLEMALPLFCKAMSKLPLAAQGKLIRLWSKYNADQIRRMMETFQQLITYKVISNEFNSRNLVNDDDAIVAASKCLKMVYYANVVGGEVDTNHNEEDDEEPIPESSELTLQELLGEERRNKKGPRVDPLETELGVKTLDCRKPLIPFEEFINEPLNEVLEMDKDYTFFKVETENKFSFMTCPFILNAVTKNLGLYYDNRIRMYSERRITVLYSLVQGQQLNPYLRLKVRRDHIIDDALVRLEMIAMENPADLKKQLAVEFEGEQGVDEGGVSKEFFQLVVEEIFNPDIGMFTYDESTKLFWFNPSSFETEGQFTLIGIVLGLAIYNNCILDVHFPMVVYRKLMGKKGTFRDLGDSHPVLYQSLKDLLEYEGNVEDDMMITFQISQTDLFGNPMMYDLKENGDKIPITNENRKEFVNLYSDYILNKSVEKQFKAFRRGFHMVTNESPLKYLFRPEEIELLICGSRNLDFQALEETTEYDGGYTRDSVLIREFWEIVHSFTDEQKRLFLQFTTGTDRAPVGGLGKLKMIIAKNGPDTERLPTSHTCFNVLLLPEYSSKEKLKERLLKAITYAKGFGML
# T2: E6APF727D (Homo sapiens, UniProt Q05086, F750D)
# T2 construct: made in house; host or cells: E. coli
# T2 sequence (Q05086 1-872 isoform Q05086-3 F747D): T1 sequence (Q05086 1-872 isoform Q05086-3 Y553A) with A553Y, F747D
# B1: E6 protein: recombinant human papilloma virus 16 E6 protein, 158 amino acids (protein)
# chain: MHQKRTAMFQDPQERPRKLPQLCTELQTTIHDIILECVYCKQQLLRREVYDFAFRDLCIVYRDGNPYAVCDKCLKFYSKISEYRHYCYSLYGTTLEQQYNKPLCDLLIRCINCQKPLCPEEKQRHLDKKQRFHNIRGRWTGRCMSCCRSSRTRRETQL
# Key:
# [1] = molecular target: T1, E6APY533A; test: E6 rescue of 125I-polyubiquitin chain formation by E6APY533A; format: biochemical; conditions: 20 nM E6 protein
# Description: (§1) E6AP-catalyzed ^125I-Ubiquitin Conjugation Assay: The E3 ligase activity of recombinant E6AP ligase was quantitated in kinetic assays under initial velocity conditions (Ronchi et al., (2013) J. Biol. Chem. 288, 10349-10360, Ronchi & Haas (2012) Methods Mol. Biol. 832: 197-218). Rates of E6AP-catalyzed ^125I-polyubiquitin chain formation were measured at 37° C. in incubations of 25-μl final volume containing 50 mM Tris-HCl (pH 7.5), 1 mM ATP, 10 mM MgCl2, 1 mM DTT, 10 mM creatine phosphate, 1 IU of creatine phosphokinase, 5 μM ^125I-ubiquitin (approximately 1.5×10^4 cpm/pmol), 50 nM human Uba1, and the indicated concentrations of UbcH7 and E6AP ligase (Siepmann et al., (2003) J. Biol. Chem. 278: 9448-9457; Baboshina et al., (2001) J. Biol. Chem. 276: 39428-39437). […]
# (§2) Polyubiquitin chain formation was measured by excising lanes between the top of the resolving gel and the top of the stacker gel, representing anchored and free ^125I-polyubiquitin chains, respectively, and quantitating associated ^125I-ubiquitin by γ-counting. Absolute rates of ^125I-polyubiquitin chain formation were calculated from the associated radioactivity and the corrected specific radioactivity for ^125I-ubiquitin. Datum points represent single assay determinations, and complete data sets were evaluated by non-linear regression analysis using GraFit version 5.0 (Erithicus). […]
# [2] = molecular target: T2, E6APF727D; test: E6 rescue of 125I-polyubiquitin chain formation by E6APF727D; format: biochemical; conditions: 20 nM E6 protein
# Description: as §1, §2
# [3] = molecular target: E6AP ligase (Homo sapiens, UniProt Q05086); conditions: surface plasmon resonance, Zanier et al. 2005; cited from earlier work
molecule,measurement,setting,value
B1,increase in rate,[1],8 fold
same,effect on E6APF727D,[2],significantly enhanced; also recorded: rescues the kcat defect
same,Kd,[3],4 µM
